Here are results for two molecules from patent US20230312724A1 (KADMON, published 2023).

Assay [1] addresses T1, mouse B7-H4-his (mouse, UniProt Q7TSP5 25-257).
T1 construct: also called mB7-H4-his; mB7-H4-His; not shown: his tag
T1 sequence: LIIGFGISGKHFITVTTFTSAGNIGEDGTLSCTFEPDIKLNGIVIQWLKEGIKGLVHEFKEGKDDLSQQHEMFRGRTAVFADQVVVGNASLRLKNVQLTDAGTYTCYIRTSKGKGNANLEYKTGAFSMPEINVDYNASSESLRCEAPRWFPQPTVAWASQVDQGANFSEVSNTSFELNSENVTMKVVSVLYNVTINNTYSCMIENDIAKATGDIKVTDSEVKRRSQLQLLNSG
Description: ELISA on coated mB7-H4-his. On the procedure:
(§1) About 1-2 μg/ml of human or mouse B7-H4-Fc (or his-tagged) was immobilized on ELISA plates (Immuno 2HB, Thermo scientific, cat #3455) at 4° C. overnight. After blocking the plates with 3% PBS+milk, serial diluted antibodies were added to the blocked plates and incubated at RT for 1-1.5 h. After washing the plates with PBS-T (0.05%), horse radish peroxidase (HRP)-conjugated antibody targeting the hFab was added to the plate. Signals were developed by adding 3,3′,5,5′-Tetramethylbenzidine (TMB (followed 1N of H₂SO₄ to stop the reaction. The OD at 450 nm was read by ELISA plate reader (Infinite M1000 from TECAN). GraphPad from Prism was used to plot OD450 vs. antibody concentration curve and to calculate the EC50 values.
(In general: In an ELISA, binding on a coated surface is turned into a signal by an enzyme label.)

In assay [2] the target is T2, human B7-H4-Fc (human).
T2 construct: also called hB7-H4-Fc; hB7-H4 Fc
Description: ELISA on coated hB7-H4-Fc. On the procedure: as §1

In assay [3] the target is T3, human B7-H4 expressed on cells (human, UniProt Q7Z7D3 25-282).
T3 construct: Transfected CHO cells or tumor cell lines that carry hB7-H4; also called cellular hB7-H4
T3 sequence: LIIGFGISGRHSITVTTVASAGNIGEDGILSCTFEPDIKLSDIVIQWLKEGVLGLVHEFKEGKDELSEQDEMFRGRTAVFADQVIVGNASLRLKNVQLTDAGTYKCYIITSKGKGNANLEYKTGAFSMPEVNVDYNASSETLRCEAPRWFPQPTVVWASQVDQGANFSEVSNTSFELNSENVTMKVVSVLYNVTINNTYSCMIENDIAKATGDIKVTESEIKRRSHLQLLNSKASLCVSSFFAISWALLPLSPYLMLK
Description: flow cytometry, SK-BR-3 cells.

The target in assay [4] is T4, hB7-H4 (soluble human B7-H4, construct not named) (human, UniProt Q7Z7D3 25-259, limits assumed).
T4 construct: also called soluble hB7-H4
T4 sequence: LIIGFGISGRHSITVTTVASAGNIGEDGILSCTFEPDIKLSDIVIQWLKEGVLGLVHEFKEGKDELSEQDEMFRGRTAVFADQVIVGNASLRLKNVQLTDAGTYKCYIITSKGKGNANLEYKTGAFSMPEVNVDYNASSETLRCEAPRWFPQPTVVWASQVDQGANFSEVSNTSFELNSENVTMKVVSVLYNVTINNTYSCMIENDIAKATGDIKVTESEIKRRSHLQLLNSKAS
Nature of the assay: SPR (Biacore). (In general: Surface plasmon resonance follows binding to a sensor surface in real time, without labels.)

The target in assay [5] is T4, hB7-H4 (soluble human B7-H4, construct …). Nature of the assay: ELISA, hB7-H4. A digest of the protocol: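 Direct binding ELISA: immobilized B7-H4-Fc or his-tagged antigen (~1-2 μg/ml, overnight, 4° C), antibody dilution series 1-1.5 h at RT. Readout OD450 after HRP anti-hFab and TMB; EC50 calculated.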
Assay [6] has as its target T5, mB7-H4 (soluble mouse B7-H4, construct not named) (mouse, UniProt Q7TSP5 25-257, limits assumed).
T5 sequence: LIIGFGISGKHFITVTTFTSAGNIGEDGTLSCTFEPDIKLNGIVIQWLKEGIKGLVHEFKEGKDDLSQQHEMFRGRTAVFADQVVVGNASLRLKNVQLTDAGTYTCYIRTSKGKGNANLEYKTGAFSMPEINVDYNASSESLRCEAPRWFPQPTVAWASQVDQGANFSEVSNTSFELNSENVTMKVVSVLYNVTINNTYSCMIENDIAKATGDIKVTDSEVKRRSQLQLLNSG
Nature of the assay: SPR (Biacore); values equal to Table 11.

Assay [7] has as its target T6, mouse B7-H4-Fc (mouse; human).
T6 construct: also called mB7-H4-Fc; mB7-H4-hFc
Description: SPR (Biacore). The method in brief: (§2)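 Kinetic constants came from a 1:1 Langmuir fit of binding at 25 °C in HBS-EP, pH 7.4. Analyte (100 nM to 0.1 nM) flowed for 180 s, then dissociated for 1000 or 1200 s, over amine-coupled human B7-H4-Fc, human B7-H4-his or mouse B7-H4-Fc surfaces at 50-100 RU.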

The target in assay [8] is T7, human B7-H4-his (human, UniProt Q7Z7D3 25-259).
T7 construct: also called hB7-H4-his; hB7-H4 his; not shown: his tag
T7 sequence: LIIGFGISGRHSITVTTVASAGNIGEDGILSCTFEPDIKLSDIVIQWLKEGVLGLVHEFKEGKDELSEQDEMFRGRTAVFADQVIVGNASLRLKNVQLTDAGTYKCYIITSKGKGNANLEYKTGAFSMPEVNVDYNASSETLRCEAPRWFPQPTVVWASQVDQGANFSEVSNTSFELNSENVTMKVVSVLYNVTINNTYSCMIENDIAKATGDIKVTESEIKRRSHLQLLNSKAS
Description: SPR (Biacore). A digest of the protocol:
as §2

In assay [9] the target is T2, human B7-H4-Fc. Description: SPR (Biacore). A digest of the protocol: as §2
The target of assay [10] is T7, human B7-H4-his. Nature of the assay: ELISA on coated hB7-H4-his. Here is the method:
as §1

Assay [11] concerns the target T8, IgC domain of human B7-H4-Fc (human).
T8 construct: also called hB7-H4 IgC domain
Description: ELISA, coated hB7-H4 IgC domain.

Assay [12] has as its target T9, IgV domain of mouse B7-H4-Fc (mouse; human).
T9 construct: also called mB7-H4 IgV domain
Description: ELISA on coated IgV domain of mB7-H4.

Assay [13] has as its target T6, mouse B7-H4-Fc. Description: ELISA on coated mB7-H4-Fc. On the procedure:
as §1

For assay [14], the target named is T10, IgC domain of mouse B7-H4-Fc (mouse; human).
T10 construct: also called mB7-H4 IgC domain
Nature of the assay: ELISA, coated mB7-H4 IgC domain.

Assay [15] concerns the target T11, IgV domain of human B7-H4-Fc (human).
T11 construct: also called hB7-H4 IgV domain
Nature of the assay: ELISA on coated IgV domain of hB7-H4.

For assay [16], the target named is T5, mB7-H4 (soluble mouse B7-H4, construct …). Nature of the assay: ELISA, mB7-H4. On the procedure: as §1

T6 sequence (chain, as listed by the source): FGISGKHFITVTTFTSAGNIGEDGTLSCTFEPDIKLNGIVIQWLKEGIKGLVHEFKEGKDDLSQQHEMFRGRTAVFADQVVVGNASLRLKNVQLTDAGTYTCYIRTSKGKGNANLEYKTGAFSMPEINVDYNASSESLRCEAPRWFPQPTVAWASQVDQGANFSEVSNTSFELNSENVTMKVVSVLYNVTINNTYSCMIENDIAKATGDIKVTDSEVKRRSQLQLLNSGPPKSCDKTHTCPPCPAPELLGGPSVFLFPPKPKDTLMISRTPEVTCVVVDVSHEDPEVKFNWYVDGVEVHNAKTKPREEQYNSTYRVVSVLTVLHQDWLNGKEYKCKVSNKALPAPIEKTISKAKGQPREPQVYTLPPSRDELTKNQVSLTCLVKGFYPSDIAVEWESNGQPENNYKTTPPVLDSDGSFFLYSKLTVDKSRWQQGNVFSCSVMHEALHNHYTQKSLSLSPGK
T2 sequence (chain, as listed by the source): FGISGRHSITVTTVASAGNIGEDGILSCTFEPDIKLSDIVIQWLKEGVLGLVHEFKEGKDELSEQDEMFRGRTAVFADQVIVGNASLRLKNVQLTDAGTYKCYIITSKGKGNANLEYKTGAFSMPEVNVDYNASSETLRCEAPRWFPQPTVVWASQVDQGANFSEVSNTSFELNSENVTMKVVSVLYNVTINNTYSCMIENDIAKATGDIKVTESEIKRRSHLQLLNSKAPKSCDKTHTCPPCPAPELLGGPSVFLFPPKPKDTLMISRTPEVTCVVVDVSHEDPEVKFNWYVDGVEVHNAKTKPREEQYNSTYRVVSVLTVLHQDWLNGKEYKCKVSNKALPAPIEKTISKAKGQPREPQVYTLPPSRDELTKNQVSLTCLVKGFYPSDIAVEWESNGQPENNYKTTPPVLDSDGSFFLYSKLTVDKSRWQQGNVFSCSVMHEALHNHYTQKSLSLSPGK
T9 sequence (chain, as listed by the source): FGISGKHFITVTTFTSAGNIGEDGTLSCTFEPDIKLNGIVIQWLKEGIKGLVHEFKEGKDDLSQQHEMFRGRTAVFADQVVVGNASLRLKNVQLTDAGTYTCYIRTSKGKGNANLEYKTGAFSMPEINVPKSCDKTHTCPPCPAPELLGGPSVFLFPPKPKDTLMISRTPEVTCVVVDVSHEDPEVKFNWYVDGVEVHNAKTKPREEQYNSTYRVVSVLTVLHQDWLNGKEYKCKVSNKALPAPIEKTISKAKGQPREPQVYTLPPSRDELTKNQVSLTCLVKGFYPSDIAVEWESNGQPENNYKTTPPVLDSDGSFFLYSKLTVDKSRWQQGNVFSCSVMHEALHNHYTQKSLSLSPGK
T11 sequence (chain, as listed by the source): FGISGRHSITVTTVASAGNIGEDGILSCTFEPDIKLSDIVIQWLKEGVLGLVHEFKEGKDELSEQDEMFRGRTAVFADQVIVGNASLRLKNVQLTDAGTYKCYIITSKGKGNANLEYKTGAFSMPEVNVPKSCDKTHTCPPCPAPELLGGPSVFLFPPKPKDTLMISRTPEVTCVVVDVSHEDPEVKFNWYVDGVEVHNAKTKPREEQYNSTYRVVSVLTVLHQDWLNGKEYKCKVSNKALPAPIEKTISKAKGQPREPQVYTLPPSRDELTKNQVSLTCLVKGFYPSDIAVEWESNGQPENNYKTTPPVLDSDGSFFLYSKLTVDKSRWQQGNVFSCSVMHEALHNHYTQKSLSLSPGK
T10 sequence (chain, as listed by the source): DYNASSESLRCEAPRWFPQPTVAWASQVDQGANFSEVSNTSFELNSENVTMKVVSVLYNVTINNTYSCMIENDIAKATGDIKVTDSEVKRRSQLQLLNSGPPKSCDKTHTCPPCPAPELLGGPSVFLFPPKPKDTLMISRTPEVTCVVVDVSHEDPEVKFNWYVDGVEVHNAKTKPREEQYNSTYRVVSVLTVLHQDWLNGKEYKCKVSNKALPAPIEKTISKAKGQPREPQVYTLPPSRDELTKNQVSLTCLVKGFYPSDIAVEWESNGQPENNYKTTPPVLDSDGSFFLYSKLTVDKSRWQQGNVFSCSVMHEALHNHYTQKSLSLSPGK
T8 sequence (chain, as listed by the source): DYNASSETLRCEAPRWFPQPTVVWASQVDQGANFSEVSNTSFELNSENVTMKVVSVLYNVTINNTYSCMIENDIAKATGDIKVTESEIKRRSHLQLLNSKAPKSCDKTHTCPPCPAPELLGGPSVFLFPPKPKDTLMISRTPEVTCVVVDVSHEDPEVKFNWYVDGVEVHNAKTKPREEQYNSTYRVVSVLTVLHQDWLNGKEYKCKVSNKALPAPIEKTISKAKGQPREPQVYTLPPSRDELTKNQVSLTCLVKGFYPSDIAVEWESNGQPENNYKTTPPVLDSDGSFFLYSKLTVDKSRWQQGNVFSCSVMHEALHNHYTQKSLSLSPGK

B1: 39A11/57G8 (antibody, human IgG1, V domains shown)
VH: EVQLLESGGGLVQPGGSLRLSCAASGFTFSSYGMHWVRQAPGKGLEWVASISSSSGYIYYADSVKGRFTISRDNSKNTLYLQMNSLRAEDTAVYYCARASSGMDVWGQGTTVTVSS
VL: DIQMTQSPSSLSASVGDRVTITCRASQSIRSYLNWYQQKPGKAPKLLIYYASSLQSGVPSRFSGSGSGTDFTLTISSLQPEDFATYYCQQYYSTPLTFGQGTKVEIK
notes: 39A11 VH with 57G8 VL
Take B1: the concentration for a half-maximal effect (EC50 (read off the curve)) (commonly the concentration giving half of the maximal effect) is approximately 0.1 nM in [1]; approximately 0.08 nM in assay [2]; approximately 0.1 nM in [10]; approximately 0.07 nM in assay [12]; approximately 0.08 nM in assay [13]; approximately 0.1 nM in assay [15]. In addition, the EC50 (in general, the concentration at which the effect is half-maximal) in [3] was 2.82 nM; in assay [5], 0.06 nM; in assay [16] it was 0.051 nM. In addition, the Kd (usually the concentration at which binding is half-saturated) came out at 0.152 nM in [4]; 0.152 nM in [6]; 0.0518 nM in [7]; 0.0355 nM in assay [8]; 0.107 nM in [9]. In addition, the binding result in assay [11] and in assay [14] was “no binding (tested: log 1 nM (10 nM))” throughout.

B2: Control antibody 1 (antibody 20502 described in US20190085080A1) (antibody, V domains shown)
VH: QLQLQESGPGLVKPSETLSLTCTVSGGSIKSGSYYWGWIRQPPGKGLEWIGNIYYSGSTYYNPSLRSRVTISVDTSKNQFSLKLSSVTAADTAVYYCAREGSYPNQFDPWGQGTLVTVSS
VL: EIVMTQSPATLSVSPGERATLSCRASQSVSSNLAWYQQKPGQAPRLLIYGASTRATGIPARFSGSGSGTEFTLTISSLQSEDFAVYYCQQYHSFPFTFGGGTKVEIK
notes: also called (+) control Ab1; (+) Ab1
With B2, the 50% effective concentration (EC50 (read off the curve)) in assay [1] is approximately 0.2 nM; in [2], approximately 0.1 nM; in assay [10], approximately 0.2 nM; in [12] it was approximately 0.4 nM; in assay [13], approximately 0.1 nM; in [15] it was approximately 0.2 nM. Moreover, the values for the concentration giving a half-maximal response (EC50) in assay [3], in assay [5] and in assay [16] were 2.64 nM, 0.106 nM and 0.139 nM, respectively. In addition, the Kd was 0.499 nM in assay [4]; 0.499 nM in [6]; 0.509 nM in [7]; 0.11 nM in assay [8]; 0.45 nM in assay [9]. The binding result in assay [11] and in assay [14] was “no binding (tested: log 1 nM (10 nM))” throughout.
